Results taken from US20020058275A1, “Compositions, kits, and methods for effecting adenine nucleotide modulation of DNA mismatch recognition proteins” (Thomas Jefferson University, priority 1997, published 2002).

Tests used:
Experiment in all cases: GST fusion protein interaction assay
Conditions in all cases: 35S-labeled IVTT protein as prey
GST-hMSH2 = molecular target: T1, GST-hMSH2 (Homo sapiens, UniProt P43246); type: binding
T1 construct: made in house; host or cells: E. coli (XL-blue), pGEX
T1 sequence (P43246 whole entry): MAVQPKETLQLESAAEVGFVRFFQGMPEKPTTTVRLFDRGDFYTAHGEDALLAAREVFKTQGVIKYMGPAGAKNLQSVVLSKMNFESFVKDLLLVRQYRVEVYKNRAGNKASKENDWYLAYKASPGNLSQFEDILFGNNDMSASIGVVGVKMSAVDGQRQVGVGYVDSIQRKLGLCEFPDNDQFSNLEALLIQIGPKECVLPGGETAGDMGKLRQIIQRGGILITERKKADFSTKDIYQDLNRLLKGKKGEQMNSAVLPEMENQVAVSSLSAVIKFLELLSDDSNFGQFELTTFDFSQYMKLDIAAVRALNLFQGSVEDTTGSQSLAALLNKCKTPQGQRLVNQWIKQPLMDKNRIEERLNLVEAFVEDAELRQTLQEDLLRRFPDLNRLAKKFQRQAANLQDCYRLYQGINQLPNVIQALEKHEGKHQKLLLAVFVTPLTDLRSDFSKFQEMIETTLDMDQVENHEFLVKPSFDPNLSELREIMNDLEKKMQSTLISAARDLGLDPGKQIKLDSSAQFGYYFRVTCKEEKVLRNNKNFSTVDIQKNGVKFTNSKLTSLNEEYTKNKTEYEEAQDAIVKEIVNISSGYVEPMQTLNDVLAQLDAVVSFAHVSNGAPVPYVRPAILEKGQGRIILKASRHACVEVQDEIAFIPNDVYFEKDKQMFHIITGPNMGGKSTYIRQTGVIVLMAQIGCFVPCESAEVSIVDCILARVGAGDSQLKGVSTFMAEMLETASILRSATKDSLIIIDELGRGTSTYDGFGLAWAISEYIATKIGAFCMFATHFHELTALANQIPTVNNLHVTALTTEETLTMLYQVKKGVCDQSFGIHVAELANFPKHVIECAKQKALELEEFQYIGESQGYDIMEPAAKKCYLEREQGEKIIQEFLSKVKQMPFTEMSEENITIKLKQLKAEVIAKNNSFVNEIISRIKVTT
Experimental: (§1) An overnight culture of E. coli XL-blue cells which harbored pGEX-hMSH(X) (i.e. ‘X’ being 2, 3, or 6) was grown in LB with […] ampicillin. 50 milliliter of Luria broth containing ampicillin was inoculated with 1 milliliter of the overnight culture, and the culture was incubated until the optical density, as assessed at 600 nanometers, was about 0.5. IPTG was added to a final concentration of 0.1 millimolar, and the culture container placed in a shaker at 30° C. for 2 hours to generate induced cells. […] GST-fusion protein levels were quantified as described herein. […] GST-fusion protein expression levels were quantitated by Coomassie Brilliant Blue staining of protein separated by SDS-PAGE gels, using BSA as a standard.
(§2) In vitro transcription and translation (IVTT) reactions involving ^35S-Methionine were performed with pET-hMSH(Y) (i.e. where ‘Y’ was 2, 3, or 6) using purified DNA according to the manufacturers recommendations. […] This value was calculated using the specific activity of ^35 S-Methionine, correcting for the number of methionine residues in each IVTT construct and using SDS-PAGE and a Molecular Dynamics Phosphorlmager device equipped with ImageQuant software (Sunnyvale, Calif.). […]

GST-hMSH6 = molecular target: T2, GST-hMSH6 (Homo sapiens, UniProt P52701); type: binding
T2 construct: GST fusion proteins which comprised either full length hMSH3 or full length hMSH6; made in house; host or cells: E. coli (XL-blue), pGEX
T2 sequence (P52701 whole entry, the tested form may be a part): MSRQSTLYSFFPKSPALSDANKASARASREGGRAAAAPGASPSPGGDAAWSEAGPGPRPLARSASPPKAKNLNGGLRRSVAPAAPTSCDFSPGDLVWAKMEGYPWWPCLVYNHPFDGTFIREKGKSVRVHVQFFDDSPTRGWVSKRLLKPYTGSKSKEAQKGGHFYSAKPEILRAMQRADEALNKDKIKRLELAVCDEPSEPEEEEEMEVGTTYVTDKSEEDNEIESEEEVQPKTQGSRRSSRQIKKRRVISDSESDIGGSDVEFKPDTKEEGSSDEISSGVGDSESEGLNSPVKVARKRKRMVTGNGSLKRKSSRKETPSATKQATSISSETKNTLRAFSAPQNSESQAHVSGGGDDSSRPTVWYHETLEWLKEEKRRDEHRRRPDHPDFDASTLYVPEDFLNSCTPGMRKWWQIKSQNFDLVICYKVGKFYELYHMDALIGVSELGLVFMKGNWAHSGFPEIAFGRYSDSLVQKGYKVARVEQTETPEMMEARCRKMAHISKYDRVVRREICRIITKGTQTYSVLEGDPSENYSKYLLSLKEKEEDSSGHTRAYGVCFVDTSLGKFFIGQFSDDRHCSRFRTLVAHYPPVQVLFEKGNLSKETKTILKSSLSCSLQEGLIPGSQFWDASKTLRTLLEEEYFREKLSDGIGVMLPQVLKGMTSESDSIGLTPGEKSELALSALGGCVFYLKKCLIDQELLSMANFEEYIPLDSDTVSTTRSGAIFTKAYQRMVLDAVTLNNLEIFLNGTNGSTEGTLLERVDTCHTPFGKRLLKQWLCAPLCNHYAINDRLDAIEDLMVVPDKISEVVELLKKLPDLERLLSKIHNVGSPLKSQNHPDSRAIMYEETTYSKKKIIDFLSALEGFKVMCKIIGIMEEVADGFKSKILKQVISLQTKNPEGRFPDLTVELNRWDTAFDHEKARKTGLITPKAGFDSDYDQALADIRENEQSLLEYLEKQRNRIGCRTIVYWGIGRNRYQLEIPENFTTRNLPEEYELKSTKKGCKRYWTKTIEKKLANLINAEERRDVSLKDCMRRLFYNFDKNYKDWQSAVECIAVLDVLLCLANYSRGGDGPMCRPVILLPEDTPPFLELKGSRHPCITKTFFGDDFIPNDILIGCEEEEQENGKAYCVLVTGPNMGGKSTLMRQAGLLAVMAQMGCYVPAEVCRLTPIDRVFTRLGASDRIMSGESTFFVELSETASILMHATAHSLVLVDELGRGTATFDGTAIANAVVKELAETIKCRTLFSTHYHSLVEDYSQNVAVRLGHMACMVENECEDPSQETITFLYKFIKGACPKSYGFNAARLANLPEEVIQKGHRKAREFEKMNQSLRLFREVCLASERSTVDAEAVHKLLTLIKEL
Experimental: as §1, §2

GST-hMSH3 = type: binding, human
Experimental: as §1, §2

B1: hMSH5: human MutS homolog, putative 834-amino-acid protein encoded by clone b29 (SEQ ID NO: 29) (protein)
chain: MASLGANPRRTPQGPRPGAASSGFPSPAPVPGPREAEEEEVEEEEELAEIHLCVLWNSGYLGIAYYDTSDSTIHFMPDAPDHESLKLLQRVLDEINPQSVVTSAKQDENMTRFLGKLASQEHREPKRPEIIFLPSVDFGLEISKQRLLSGNYSFIPDAMTATEKILFLSSIIPFDCLLTVRALGGLLKFLGRRRIGVELEDYNVSVPILGFKKFMLTHLVNIDQDTYSVLQIFKSESHPSVYKVASGLKEGLSLFGILNRCHCKWGEKLLRLWFTRPTHDLGELSSRLDVIQFFLLPQNLDMAQMLHRLLGHIKNVPLILKRMKLSHTKVSDWQVLYKTVYSALGLRDACRSLPQSIQLFRDIAQEFSDDLHHIASLIGKVVDFEGSLAENRFTVLPNIDPEIDEKKRRLMGLPSFLTEVARKELENLDSRIPSCSVIYIPLIGFLLSIPRLPSMVEASDFEINGLDFMFLSEEKLHYRSARTKELDALLGDLHCEIRDQETLLMYQLQCQVLARAAVLTRVLDLASRLDVLLALASAARDYGYSRPRYSPQVLGVRIQNGRHPLMELCARTFVPNSTECGGDKGRVKVITGPNSSGKSIYLKQVGLITFMALVGSFVPAEEAEIGAVDAIFTRIHSCESISLGLSTFMIDLNQVAKAVNNATAQSLVLIDEFGKGTNTVDGLALLAAVLRHWLARGPTCPHIFVATNFLSLVQLQLLPQGPLVQYLTMETCEDGNDLVFFYQVCEGVAKASHASHTAAQAGLPDKLVARGKEVSDLIRSGKPIKPVKDLLKKNQMENCQTLVDKFMKLDLEDPNLDLNVFMSQEVLPAATSIL
modifications: left off: a dimerising Fc or GST; large carriers; small tags and cut ends
did not interact: interaction with GST-hMSH2 fusion protein (GST-hMSH2) | interaction with GST-hMSH6 fusion protein (GST-hMSH6) | interaction with GST-hMSH3 fusion protein (GST-hMSH3)
